Reference: PMC13534702, “Polo/PLK1 phosphorylation relieves Centrosomin/Cnn autoinhibition to promote centrosome scaffold assembly” (The EMBO Journal, 2026)
Positions count from the first letter of the chain named. Names may count otherwise.

T1: Full-length SPD-5-GFP (C. elegans), P91349
T1 chain: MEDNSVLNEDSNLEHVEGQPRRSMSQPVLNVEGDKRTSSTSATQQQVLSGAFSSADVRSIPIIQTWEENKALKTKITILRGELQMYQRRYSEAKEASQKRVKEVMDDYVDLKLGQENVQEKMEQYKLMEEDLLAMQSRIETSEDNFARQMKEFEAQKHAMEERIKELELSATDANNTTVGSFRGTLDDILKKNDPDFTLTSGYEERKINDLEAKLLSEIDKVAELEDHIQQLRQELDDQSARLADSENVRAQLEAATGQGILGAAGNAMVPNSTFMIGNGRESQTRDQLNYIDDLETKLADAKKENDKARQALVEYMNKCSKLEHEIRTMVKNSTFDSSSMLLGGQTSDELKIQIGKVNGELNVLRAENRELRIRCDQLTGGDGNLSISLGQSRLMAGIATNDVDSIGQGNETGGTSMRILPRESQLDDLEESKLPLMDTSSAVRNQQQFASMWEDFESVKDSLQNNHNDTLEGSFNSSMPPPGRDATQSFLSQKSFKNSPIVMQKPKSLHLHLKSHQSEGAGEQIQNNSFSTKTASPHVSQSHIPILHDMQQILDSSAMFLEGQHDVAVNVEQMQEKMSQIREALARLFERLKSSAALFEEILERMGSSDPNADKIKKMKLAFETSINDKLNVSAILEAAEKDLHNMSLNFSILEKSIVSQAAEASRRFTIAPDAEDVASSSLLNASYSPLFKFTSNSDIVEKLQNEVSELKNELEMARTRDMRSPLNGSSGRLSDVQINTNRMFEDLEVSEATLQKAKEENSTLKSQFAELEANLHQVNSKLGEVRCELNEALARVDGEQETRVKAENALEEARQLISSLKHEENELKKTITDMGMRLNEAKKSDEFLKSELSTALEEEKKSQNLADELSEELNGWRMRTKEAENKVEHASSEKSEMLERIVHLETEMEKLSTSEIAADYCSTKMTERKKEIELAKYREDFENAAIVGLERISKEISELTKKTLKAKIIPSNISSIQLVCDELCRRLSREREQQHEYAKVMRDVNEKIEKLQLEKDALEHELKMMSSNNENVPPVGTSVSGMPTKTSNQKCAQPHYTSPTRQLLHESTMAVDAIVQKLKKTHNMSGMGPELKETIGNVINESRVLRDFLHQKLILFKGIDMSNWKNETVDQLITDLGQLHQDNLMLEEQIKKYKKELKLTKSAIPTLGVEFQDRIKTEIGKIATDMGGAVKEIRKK

T2: MBP-Cnn_(490-608) 2E (S567E/S571E) (Drosophila melanogaster, UniProt P54623-2 490-608, S567E | S571E)
T2 construct: also called 2E mutant; source: E. coli BL21 (DE3), purified; not shown: MBP, N-terminal, kept
T2 sequence (looked up): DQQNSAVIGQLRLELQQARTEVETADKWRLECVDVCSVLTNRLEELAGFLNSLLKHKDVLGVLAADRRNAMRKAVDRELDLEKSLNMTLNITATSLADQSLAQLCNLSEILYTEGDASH

T3: Cnn_(490-608), tag cleaved (SEC-MALS) (Drosophila melanogaster, UniProt P54623-2 490-608)
T3 construct: also called PReMΔH1ΔNTH2; source: E. coli BL21 (DE3), purified, tag cleaved for SEC-MALS; not shown: His6, N-terminal, cleaved; MBP, N-terminal, cleaved
T3 sequence (looked up): T2 sequence (looked up) with E78S, E82S

B1: Full-length SPD-5-GFP, P91349 1-1198 (natural protein)
chain: T1 chain
B2: Full-length Cnn-GFP (natural protein, Drosophila melanogaster, UniProt P54623-2 1-1148, looked up)
chain: MDQSKQVLRDYCGDGNGTCASSLKEITLIETVTSFLEENGAAEIDRRVLRKLAEALSKSIDDTSPGALQDVTMENSYASFDVPRPPGGGNSPLPSQGRSVRELEEQMSALRKENFNLKLRIYFLEEGQPGARADSSTESLSKQLIDAKIEIATLRKTVDVKMELLKDAARAISHHEELQRKADIDSQAIIDELQEQIHAYQMAESGGQPVENIAKTRKMLRLESEVQRLEEELVNIEARNVAARNELEFMLAERLESLTACEGKIQELAIKNSELVERLEKETASAESSNANRDLGAQLADKICELQEAQEKLKERERIHEQACRTIQKLMQKLSSQEKEIKKLNQENEQSANKENDCAKTVISPSSSGRSMSDNEASSQEMSTNLRVRYELKINEQEEKIKQLQTEVKKKTANLQNLVNKELWEKNREVERLTKLLANQQKTLPQISEESAGEADLQQSFTEAEYMRALERNKLLQRKVDVLFQRLADDQQNSAVIGQLRLELQQARTEVETADKWRLECVDVCSVLTNRLEELAGFLNSLLKHKDVLGVLAADRRNAMRKAVDRSLDLSKSLNMTLNITATSLADQSLAQLCNLSEILYTEGDASHKTFNSHEELHAATSMAPTVENLKAENKALKKELEKRRSSEGQRKERRSLPLPSQQFDNQSESEAWSEPDRKVSLARIGLDETSNSLAAPEQAISESESEGRTCATRQDRNRNSERIAQLEEQIAQKDERMLNVQCQMVELDNRYKQEQLRCLDITQQLEQLRAINEALTADLHAIGSHEEERMVELQRQLELKNQQIDQLKLAHSTLTADSQITEMELQALQQQMQEIEQLHADSVETLQSQLQKLKLDAVQQLEEHERLHREALERDWVALTTYQEQAQQLLELQRSLDYHQENEKELKQTLVENELATRALKKQLDESTLQASKAVMERTKAYNDKLQLEKRSEELRLQLEALKEEHQKLLQKRSNSSDVSQSGYTSEEVAVPMGPPSGQATTCKQAAAAVLGQRVNTSSPDLGIESDAGRISSVEVSNAQRAMLKTVEMKTEGSASPKAKSEESTSPDSKSNVATGAATVHDCAKVDLENAELRRKLIRTKRAFEDTYEKLRMANKAKAQVEKDIKNQILKTHNVLRNVRSNMENEL
notes: Centrosomin (Cnn), Drosophila melanogaster, full length, synthesised gene; also called Cnn-WT; not shown: MBP, N-terminal, cleaved; mGFP, C-terminal, kept; His10, C-terminal, cleaved
B3: MBP-Cnn_(490-608) WT (domain or fragment, Drosophila melanogaster, UniProt P54623-2 490-608, looked up)
chain: T2 sequence (looked up) with E78S, E82S
notes: I take the same protein to have been used there; source: E. coli BL21 (DE3), purified; not shown: MBP, N-terminal, kept
B4: Drosophila Cnn CM2 domain (domain or fragment, Drosophila melanogaster, UniProt P54623-2 1082-1148, looked up)
chain: HDCAKVDLENAELRRKLIRTKRAFEDTYEKLRMANKAKAQVEKDIKNQILKTHNVLRNVRSNMENEL
notes: the EM methods print 1077-1148; The methods say that the N-terminal tag was cleaved for SEC-MALS, crystallisation or further use; also called DmCM2; fly CM2; source: E. coli BL21 (DE3), purified
B5: MBP-Cnn_(490-608) 2A (S567A/S571A) (domain or fragment, Drosophila melanogaster, UniProt P54623-2 490-608, looked up)
chain: T2 sequence (looked up) with E78A, E82A
notes: also called 2A-mutant PReM; source: E. coli BL21 (DE3), purified; not shown: MBP, N-terminal, kept

Key:
[1] = biological target: T1, Full-length SPD-5-GFP (C. elegans), …; assay: mass photometry; full-length GFP fusions in solution; 20 mM HEPES, 150 mM KCl, pH 7.25; low nanomolar concentration (10 nM final by the procedure of the standards); settings: remark: other sources report otherwise
[2] = biological target: the molecule itself; assay: as above
[3] = biological target: the molecule itself; assay: SEC; MBP-Cnn 490-608 variants run alone; absorbance at 280 nm; size judged from the elution volume
[4] = biological target: B3; assay: SEC; PReM domain (Cnn 490-608) variants mixed with CM2; fractions checked on SDS gels; settings: both partners purified
[5] = biological target: T2, MBP-Cnn_(490-608) 2E (S567E/S571E); assay: as above; settings: both partners purified
[6] = biological target: T3, Cnn_(490-608), tag cleaved (SEC-MALS); assay: SEC-MALS; Cnn 490-608 mixed with CM2; Superdex 75 or Superdex 200 10/300 Increase; 20 mM Tris pH 7.5, 150 mM NaCl, 0.5 mM TCEP; 0.5 mL/min; fraction checked on an SDS gel; settings: both partners purified

Binder: B1
stoichiometry N [1]: 2

Binder: B2
stoichiometry N [2]: 2

Binder: B3
stoichiometry N [3]: 2

Binder: B4
binding result [4]: binds
binding result [5]: binds
binding result [6]: binds

Binder: B5
stoichiometry N [3]: 2
